The values that follow come from PMC6422694.

The subject of this data set is NC(=O)c1ccc[n+]([C@@H]2O[C@H](COP(=O)(O)OP(=O)(O)OC[C@H]3O[C@@H](n4cnc5c(N)ncnc54)[C@H](O)[C@@H]3O)[C@@H](O)[C@H]2O)c1. The experiment in a line: purified protein. The settings on record: pH 8.1.

The term Km denotes the substrate concentration at which the rate is half of its maximum.

Regarding (Oryza sativa Japonica Group), the Km is 193.7 ± 98.2 µM.
